The values that follow come from paper PMC4174873.

This assay concerns the target CTBMPR (not stated | Human immunodeficiency virus 1 (HIV-1)) (UniProt P01556). Description: SEC. (Size exclusion chromatography separates by hydrodynamic size, large species first.)

The stoichiometry N is a count of units in the complex or per binding partner.

Substance CTBMPR (from UniProt P01556 22-124) registered a stoichiometry N of 5.
